The values below come from paper PMC10838266 (Nature Communications, 2024).

The chains are these.
B1: EGFR peptide, wild-type (contains the dileucine sorting signal) (peptide)
peptide: PNQALLRILKETE
notes: Stretch of the juxta-membrane region of the epidermal growth factor receptor (EGFR) with the dileucine sorting signal; also called peptide that contains the relevant dileucine motif; source: synthetic peptide (core facility)
B2: Phosphoglycerate kinase 1, wild-type, His-tagged recombinant (enzyme, UniProt P00558 1-417, looked up)
chain: MSLSNKLTLDKLDVKGKRVVMRVDFNVPMKNNQITNNQRIKAAVPSIKFCLDNGAKSVVLMSHLGRPDGVPMPDKYSLEPVAVELKSLLGKDVLFLKDCVGPEVEKACANPAAGSVILLENLRFHVEEEGKGKDASGNKVKAEPAKIEAFRASLSKLGDVYVNDAFGTAHRAHSSMVGVNLPQKAGGFLMKKELNYFAKALESPERPFLAILGGAKVADKIQLINNMLDKVNEMIIGGGMAFTFLKVLNNMEIGTSLFDEEGAKIVKDLMSKAEKNGVKITLPVDFVTADKFDENAKTGQATVASGIPAGWMGLDCGPESSKKYAEAVTRAKQIVWNGPVGVFEWEAFARGTKALMDEVVKATSRGCITIIGGGDTATCCAKWNTEDKVSHVSTGGGASLELLEGKVLPGVDALSNI
notes: Phosphoglycerate kinase 1 (PGK1), wild-type, cloned into the BamHI and XhoI sites of pET32a; also called PGK1; His-tagged PGK1

One assay concerns the target Hrs (UniProt O14964). The assay can be described thus: co-immunoprecipitation from cell lysate. The conditions noted are these: reference: wild type; sites S203.
Assay [1] concerns the target B2. The assay can be described thus: pull-down; competition with purified components: increasing level of an EGFR peptide (dileucine signal or mutated) added to the pull-down of PGK1 by GST-EGFR. The conditions noted are these: both partners purified.
The target in assay [2] is T1, GST fused to the cytoplasmic domain of the epidermal growth factor receptor (UniProt P00533 669-1210).
T1 construct: Epidermal growth factor receptor (EGFR), cytoplasmic domain appended to the carboxy terminus of GST in pGEX-4T-1; also called GST-EGFR cytoplasmic domain; source: E. coli BL21, purified on glutathione-Sepharose 4B beads; not shown: GST, N-terminal, kept
The assay can be described thus: pull-down; GST-fusion proteins on glutathione beads incubated with soluble proteins (100 nM), 4 °C, 1 h, PBS with 0.05% Triton X-100 and protease inhibitors; two washes; SDS-PAGE with Coomassie staining or western blot. The conditions noted are these: both partners purified.

Turning to PGK1 (from UniProt P00558) S203A, the “binding against the reference” value with Hrs is reported as “weaker”. For B1, the binding result in assay [1] is “binds”. With B2, in assay [2], the binding result is “binds”.
